Reference: PMC8748714 (2022)

B1: unnamed (parent)
chain 1: HSQGTFTSDYSKYLDSRRAQDFVQWLMNTKRNRNNIA
chain 2: RPQGATVSLWETVQKWREYRRQCQRSLTEDPPPATDLFCNRTFDEYACWPDGEPGSFVNVSCPWYLPWASSVPQGHVYRFCTAEGLWLQKDNSSLPWRDLSECEESKRGERSSPEEQLLFLYIIYTVGYALSFSALVIASAILLGFRHLHCTRNYIHLNLFASFILRALSVFIKDAALKWMYSTAAQQHQWDGLLSYQDSLSCRLVFLLMQYCVAANYYWLLVEGVYLYTLLAFSVLSEQWIFRLYVSIGWGVPLLFVVPWGIVKYLYEDEGCWTRNSNMNYWLIIRLPILFAIGVNFLIFVRVICIVVSKLKANLMCKTDIKCRLAKSTLTLIPLLGTHEVIFAFVMDEHARGTLRFIKLFTELSFTSFQGLMVAILYCFVNNEVQLEFRKSWERWRLEHLHIQRDSSMKPLKCPTSSLSSGATAGSSMYTATCQASCS

Variants of: B1
Experiment: radioligand competition binding on whole cells
Conditions: with partner chain of the complex shown;; read off a plot

Row | Variant | log10 ratio
1 | chain 2 RPQGATVSLWETVQKWREYRRQCQRSLTEDPPPATDLFCNRTFDEYACWPDGEPGSFVNVSCPWYLPWASSVPQGHVYRFCTAEGLWLQKDNSSLPWRDLSECEESKRGERSSPEEQLLFLYIIYTVGYALSFSALVIASAILLGFRHLHCTRNYIHLNLFASFILAALSVFIKDAALKWMYSTAAQQHQWDGLLSYQDSLSCRLVFLLMQYCVAANYYWLLVEGVYLYTLLAFSVLSEQWIFRLYVSIGWGVPLLFVVPWGIVKYLYEDEGCWTRNSNMNYWLIIRLPILFAIGVNFLIFVRVICIVVSKLKANLMCKTDIKCRLAKSTLTLIPLLGTHEVIFAFVMDEHARGTLRFIKLFTELSFTSFQGLMVAILYCFVNNEVQLEFRKSWERWRLEHLHIQRDSSMKPLKCPTSSLSSGATAGSSMYTATCQASCS [chain 2 R167A] | 0.1 pIC50 ΔWT
2 | chain 2 RPQGATVSLWETVQKWREYRRQCQRSLTEDPPPATDLFCNRTFDEYACWPDGEPGSFVNVSCPWYLPWASSVPQGHVYRFCTAEGLWLQKDNSSLPWRDLSECEESKRGERSSPEEQLLFLYIIYTVGYALSFSALVIASAILLGFRHLHCTRNYIHLNLFASFILRALSVFIKDAALKWMYSTAAQQHQWDGLLSYQDSLSCRLVFLLMQYCVAANYYWLLVEGVYLYTLLAFSVLSEQWIFRLYVSIGWGVPLLFVVPWGIVKYLYEDEGCATRNSNMNYWLIIRLPILFAIGVNFLIFVRVICIVVSKLKANLMCKTDIKCRLAKSTLTLIPLLGTHEVIFAFVMDEHARGTLRFIKLFTELSFTSFQGLMVAILYCFVNNEVQLEFRKSWERWRLEHLHIQRDSSMKPLKCPTSSLSSGATAGSSMYTATCQASCS [chain 2 W274A] | -0.4 pIC50 ΔWT
3 | chain 2 RPQGATVSLWETVQKWREYRRQCQRSLTEDPPPATDLFCNRTFDEYACWPDGEPGSFVNVSCPWYLPWASSVPQGHVYRFCTAEGLWLQKDNSSLPWRDLSECEESKRGERSSPEEQLLFLYIIYTVGYALSFSALVIASAILLGFRHLHCTRNYIHLNLFASFILRALSVFIKDAALKWMYSTAAQQHQWDGLLSYQDSLSCRLVFLLMQYCVAAAYYWLLVEGVYLYTLLAFSVLSEQWIFRLYVSIGWGVPLLFVVPWGIVKYLYEDEGCWTRNSNMNYWLIIRLPILFAIGVNFLIFVRVICIVVSKLKANLMCKTDIKCRLAKSTLTLIPLLGTHEVIFAFVMDEHARGTLRFIKLFTELSFTSFQGLMVAILYCFVNNEVQLEFRKSWERWRLEHLHIQRDSSMKPLKCPTSSLSSGATAGSSMYTATCQASCS [chain 2 N217A] | 0.3 pIC50 ΔWT
4 | chain 2 RPQGATVSLWETVQKWREYRRQCQRSLTEDPPPATDLFCNRTFDEYACWPDGEPGSFVNVSCPWYLPWASSVPQGHVYRFCTAEGLWLQKDNSSLPWRDLSECEESKRGERSSPEEQLLFLYIIYTVGYALSFSALVIASAILLGFRHLHCTRNYIHLNLFASFILRALSVFIKDAALKWMYSTAAQQHQWDGLLSYQDSLSCRLVFLLMQYCVAANYYWLLVEGVYLYTLLAFSVLSEQWIFRLYVSIGWGVPLLFVVPWGIVKYLYEDEGCWTRNSNMNYWLIIRLPILFAIGVNFLIFVRVICIVVSKLKANLMCKTDIKCRLAKSTLTLIPLLGTHAVIFAFVMDEHARGTLRFIKLFTELSFTSFQGLMVAILYCFVNNEVQLEFRKSWERWRLEHLHIQRDSSMKPLKCPTSSLSSGATAGSSMYTATCQASCS [chain 2 E341A] | 0.3 pIC50 ΔWT
5 | chain 2 RPQGATVSLWETVQKWREYRRQCQRSLTEDPPPATDLFCNRTFDEYACWPDGEPGSFVNVSCPWYLPWASSVPQGHVYRFCTAEGLWLQKDNSSLPWRDLSECEESKRGERSSPEEQLLFLYIIYTVGYALSFSALVIASAILLGFRHLHCTRNYIHLNLFASFILRALSVFIADAALKWMYSTAAQQHQWDGLLSYQDSLSCRLVFLLMQYCVAANYYWLLVEGVYLYTLLAFSVLSEQWIFRLYVSIGWGVPLLFVVPWGIVKYLYEDEGCWTRNSNMNYWLIIRLPILFAIGVNFLIFVRVICIVVSKLKANLMCKTDIKCRLAKSTLTLIPLLGTHEVIFAFVMDEHARGTLRFIKLFTELSFTSFQGLMVAILYCFVNNEVQLEFRKSWERWRLEHLHIQRDSSMKPLKCPTSSLSSGATAGSSMYTATCQASCS [chain 2 K174A] | -1.9 pIC50 ΔWT

Variants of: B1
Experiment: radioligand competition binding on whole cells
Conditions: with partner chain of the complex shown;; read off a plot
Remark: another data set of the same source

Row | Variant | log10 ratio
6 | chain 2 RPQGATVSLWETVQKWREYRRQCQRSLTEDPPPATDLFCNRTFDEYACWPDGEPGSFVNVSCPWYLPWASSVPQGHVYRFCTAEGLWLQKDNSSLPWRDLSECEESKRGERSSPEEQLLFLYIIYTVGYALSFSALVIASAILLGFRHLHCTRNYIHLNLFASFILRALSVFIKDAALKWMYSTAAQQHQWDGLLSYQDSLSCRLVFLLMQYCVAANYYWLLVEGVYLYTLLAFSVLSEQWIFRLYVSIGWGVPLLFVVPWGIVKYLYEDEGCATRNSNMNYWLIIRLPILFAIGVNFLIFVRVICIVVSKLKANLMCKTDIKCRLAKSTLTLIPLLGTHEVIFAFVMDEHARGTLRFIKLFTELSFTSFQGLMVAILYCFVNNEVQLEFRKSWERWRLEHLHIQRDSSMKPLKCPTSSLSSGATAGSSMYTATCQASCS [chain 2 W274A] | -0.3 pIC50 ΔWT
7 | chain 2 RPQGATVSLWETVQKWREYRRQCQRSLTEDPPPATDLFCNRTFDEYACWPDGEPGSFVNVSCPWYLPWASSVPQGHVYRFCTAEGLWLQKDNSSLPWRDLSECEESKRGERSSPEEQLLFLYIIYTVGYALSFSALVIASAILLGFRHLHCTRNYIHLNLFASFILRALSVFIKDAALKWMYSTAAQQHQWDGLLSYQDSLSCRLVFLLMQYCVAANYYWLLVEGVYLYTLLAFSVLSEQWIFRLYVSIGWGVPLLFVVPWGIVKYLYEDEGCWTRNSNMNYWLIIRLPILFAIGVNFLIFVRVICIVVSKLKANLMCKTDIKCRLAKSTLTLIPLLGTHEVIFAFVMDEHARGTLRFIKLFTALSFTSFQGLMVAILYCFVNNEVQLEFRKSWERWRLEHLHIQRDSSMKPLKCPTSSLSSGATAGSSMYTATCQASCS [chain 2 E364A] | -0.85 pIC50 ΔWT
